Data published in patent publication US9359446B2, “Antibody to a carbonic anhydrase” (Hemholtz Zentrum Munchen—Deutches Forschungszentrum Fur …, priority 2010, dated 2016).

Assays:
CA-XII [1] = molecular target: T1, CA-XII (Homo sapiens, UniProt O43570); assay: CA-XII inhibition by EXO 6A10 and azetazolamide; type: biochemical; conditions: compared to sulfonamid azedazolamide
CA-II = CA-II (Homo sapiens, UniProt P00918); assay: EXO 6A10 inhibition of CA II; type: biochemical
A549 lung cancer cells = assay: Inhibition of metabolic activity and growth in 3-dimensional A549 tumour spheroids (MTT-assay, pictures); type: cell-based, human
Description: Metabolic acitivity of the spheroid was measured two days later by means of a MTT-assay and reading of the extinction at 595 nm (Cory et al. 1991). All data are represented as mean±standard error. Comparisons between non-treated and treated spheroids were performed using t-tests.
A549 lung cancer cells were plated onto a cushion consisting of 1% (v/v) agarose in PBS on a 96-well cell culture plate. […] Instead cells spontaneousely form 3-dimensional structures termed tumour spheroids.
FIG. 7, Upper: Some of the spheroids were cultivated in the presence of EXO 6A10 (final concentration 10 μg/ml) whereas others were cultivated with acetazolamide (AAZ, final concentration 100 μM). Control spheroids were cultivated without any additional treatment (Unbeh.). The metabolic acitivity of the spheroid was measured two days later by means of a MTT-assay as described and reading of the extinction at 595 nm (Cory et al. 1991). For each group, 10 spheroids were included, the mean value, the standard deviation were calculated. All data are represented as mean±standard error. Comparisons between non-treated and treated spheroids were performed using t-tests, calculated using Prism4 (GraphPad Software, La Jolla).
FIG. 7, Lower: A549 spheroids were cultivated for two days with EXO 6A10 or left untreated.

[2] = system: non-transfected L929-cells; assay: Flow cytometry binding to non-transfected L929 cells (control); set-up: species or system murine
Description: (§1) Murine L929 cells were transfected with an expression plasmid encoding human CA-XII. […] As a control, binding of EXO 6A10 to non-transfected L929-cells was tested (FIG. 10, grey area, L929). […] the binding of membrane localized overexpressed human CA-XII.

[3] = system: peripheral blood mononuclear cells (PBMC), melanoma cell lines; assay: Flow cytometry binding to peripheral blood mononuclear cells and melanoma cell lines; set-up: species or system human; conditions: hybridoma supernatant diluted 1:5
Description: FIG. 4A. Permanent human cancer cell lines were incubated with EXO 6A10 (hybridoma supernatant diluted 1:5 in 2% (v/v) FCS (i.e., fetal calf serum) in PBS) for 15 min on ice, washed three times in PBS/2% (v/v) FCS and then stained with a specific secondary antibody (goat-anti-rat IgG/Cy5) for another 15 min on ice. Binding of 6A10 was then measured by flow cytometry in a Becton Dickinson FACS Calibur device and FlowJo software (Treestar Inc.). An antibody of the identical isotype with an irrelevant specificity (glutathione-S-transferase) was used as control. (grey are=isotype control; black line=EXO 6A10). No binding to peripheral blood mononuclear cells (PBMC) and to two melanoma cell lines (not shown) was detectable. […] Exosomes were isolated from malignant ascites by differential centrifugation (500×g; 10.000×g; 70.000×g) and resuspended in PBS. The protein concentration was measured in a standard Bradford assay. 2 μg protein were pipetted onto a nitrocellulose membrane. Membranes were incubated with the different primary antibodies. After washing, membranes were incubated with a specific secondary antibodiy (anti-rat IgG/peroxidase). Ganglioside GM1 was detected with cholera toxine subunit B/peroxidase. Membranes were developed with the ECL system.

CA-XII [4] = molecular target: T1, CA-XII; assay: Flow cytometry binding to murine L929 cells transfected with human CA-XII; set-up: expressed in transfected cells; host or cells: murine L929 cells
Description: as §1

T1 sequence (O43570 25-354): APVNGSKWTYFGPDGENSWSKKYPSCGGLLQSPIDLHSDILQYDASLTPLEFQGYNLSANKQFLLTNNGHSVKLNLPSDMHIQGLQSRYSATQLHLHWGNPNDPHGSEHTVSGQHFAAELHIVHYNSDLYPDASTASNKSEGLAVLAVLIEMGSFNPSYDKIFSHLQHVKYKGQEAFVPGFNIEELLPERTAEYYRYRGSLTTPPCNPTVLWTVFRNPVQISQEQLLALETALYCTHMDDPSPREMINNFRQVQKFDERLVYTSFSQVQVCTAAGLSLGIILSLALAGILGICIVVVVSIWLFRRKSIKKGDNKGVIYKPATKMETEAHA

B1: EXO 6A10: rat monoclonal antibody raised to human CA-XII; CDRs SEQ ID NOs 1 to 6, VH SEQ ID NO. 7, VL SEQ ID NO. 8 (protein)
light: MARVFQQDDIVMTQTPATLSVTPGESVSLSCRASQGISTSIHWYQQKSNESPRLLIKFASQSISGIPSRFSGSGSGTDFTLSINRVESEDFSVYFCQQTYSLPYTFGAGTKLELKRADGCTNCIHLSRRSPTIFSAAMENRCSSFILSRFSGCILKLILRTMLTTSSGTVVGG
VH: EVKLEESGPGLVQPSETLSLTCTVSGFSLTTYSVSWVRQPSGKGPEWMGRMWYDGDTVYNSALKSRLSISRDTSKNQVFLKMNSLETDETGTYYCTRDFGYFDGSSPFDYWGQGVMVTVSSAETTAPSVYPLAPGTALKSNSMVTLGCLVKILLKNSSHPEDLAAALPIVSRITPDGYGVQAQVLKQLILFTMRKKQ
- inhibition of CA-XII enzyme activity relative to azedazolamide (CA-XII [1]): 40 times
- inhibition of CA-II (CA-II): does not significantly inhibit
- metabolic activity of spheroids (MTT-assay, extinction at 595 nm) (A549 lung cancer cells; A549 spheroids, 10 μg/ml, two days): inhibition of metabolic activity
- size and density of A549 spheroids (A549 lung cancer cells; cultivated for two days, versus untreated spheroids): much smaller and much more dense
- growth of tumour cell line A549 (A549 lung cancer cells; hypotoxic culture conditions): inhibits the growth
- binding to non-transfected L929 cells [2]: not to non-transfected cells
- binding to PBMC and two melanoma cell lines [3]: No binding
- binding to L929 cells transfected with human CA-XII (CA-XII [4]): binds to transfected
